Experimental data taken from paper PMC6239180.

Key:
[1] = biological target: T1, hPcf11 (CF II subunit);hClp1 (CF II subunit or alone) (human;human, UniProt O94913;Q92989 1-1555;1-425, |); assay: EMSA
[2] = biological target: T1, hPcf11 (CF II subunit);hClp1 (CF II …); assay: UV cross-linking and immunoprecipitation

T1 sequence (O94913 whole entry, chain 1 of 2): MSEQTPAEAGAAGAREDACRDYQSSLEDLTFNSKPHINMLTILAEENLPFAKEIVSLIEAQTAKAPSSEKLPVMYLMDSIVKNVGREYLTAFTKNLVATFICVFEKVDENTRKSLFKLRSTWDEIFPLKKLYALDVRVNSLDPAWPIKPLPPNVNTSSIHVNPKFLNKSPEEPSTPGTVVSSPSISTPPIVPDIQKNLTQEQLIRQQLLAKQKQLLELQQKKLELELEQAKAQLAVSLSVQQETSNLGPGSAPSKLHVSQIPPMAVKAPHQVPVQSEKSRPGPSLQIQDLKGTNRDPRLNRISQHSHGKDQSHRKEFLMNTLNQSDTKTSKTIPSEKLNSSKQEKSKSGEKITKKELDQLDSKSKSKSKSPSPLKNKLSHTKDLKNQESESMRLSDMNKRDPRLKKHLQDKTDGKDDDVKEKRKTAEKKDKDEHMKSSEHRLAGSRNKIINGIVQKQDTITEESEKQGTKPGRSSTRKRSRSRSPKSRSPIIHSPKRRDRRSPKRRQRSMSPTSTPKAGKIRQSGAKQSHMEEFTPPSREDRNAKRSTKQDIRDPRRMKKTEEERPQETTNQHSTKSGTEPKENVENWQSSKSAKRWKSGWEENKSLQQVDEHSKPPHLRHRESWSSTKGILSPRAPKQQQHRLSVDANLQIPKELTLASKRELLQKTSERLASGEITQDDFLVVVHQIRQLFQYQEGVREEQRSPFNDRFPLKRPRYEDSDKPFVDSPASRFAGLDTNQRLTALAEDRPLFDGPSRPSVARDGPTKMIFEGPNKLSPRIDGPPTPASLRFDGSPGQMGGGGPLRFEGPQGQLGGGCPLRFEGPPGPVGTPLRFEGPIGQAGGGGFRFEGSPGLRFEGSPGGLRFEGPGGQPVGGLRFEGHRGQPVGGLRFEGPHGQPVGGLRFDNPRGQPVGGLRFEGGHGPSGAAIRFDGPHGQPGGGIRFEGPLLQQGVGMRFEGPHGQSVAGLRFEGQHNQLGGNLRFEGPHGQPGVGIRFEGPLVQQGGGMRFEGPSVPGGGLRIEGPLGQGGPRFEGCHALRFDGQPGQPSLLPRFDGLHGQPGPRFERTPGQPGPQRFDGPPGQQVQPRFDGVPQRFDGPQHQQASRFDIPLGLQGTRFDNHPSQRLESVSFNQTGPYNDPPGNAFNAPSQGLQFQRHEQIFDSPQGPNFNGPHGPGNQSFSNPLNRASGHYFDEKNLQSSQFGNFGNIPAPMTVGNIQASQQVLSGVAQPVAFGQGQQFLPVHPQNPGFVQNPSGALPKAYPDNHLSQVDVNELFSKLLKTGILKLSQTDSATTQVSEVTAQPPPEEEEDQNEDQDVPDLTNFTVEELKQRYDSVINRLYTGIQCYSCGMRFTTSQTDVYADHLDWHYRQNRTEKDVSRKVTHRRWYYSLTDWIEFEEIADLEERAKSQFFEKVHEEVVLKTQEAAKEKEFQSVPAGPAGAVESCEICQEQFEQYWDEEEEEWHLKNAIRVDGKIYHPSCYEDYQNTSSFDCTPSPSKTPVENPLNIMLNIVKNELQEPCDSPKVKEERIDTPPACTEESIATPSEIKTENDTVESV
T1 sequence (Q92989 whole entry, chain 2 of 2): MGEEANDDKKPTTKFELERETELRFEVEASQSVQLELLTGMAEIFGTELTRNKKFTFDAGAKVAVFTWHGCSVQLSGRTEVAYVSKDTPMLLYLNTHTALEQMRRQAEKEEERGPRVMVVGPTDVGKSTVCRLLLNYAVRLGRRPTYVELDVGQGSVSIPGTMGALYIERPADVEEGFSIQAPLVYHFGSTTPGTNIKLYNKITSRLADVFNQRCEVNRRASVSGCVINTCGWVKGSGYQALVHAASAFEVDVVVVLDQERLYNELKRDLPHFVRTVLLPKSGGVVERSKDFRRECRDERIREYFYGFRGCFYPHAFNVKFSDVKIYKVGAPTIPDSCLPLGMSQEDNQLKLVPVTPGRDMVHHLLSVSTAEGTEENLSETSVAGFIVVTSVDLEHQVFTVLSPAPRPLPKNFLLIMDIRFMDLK

Binder | Kd [1] [nM] | binding result [2]
GGGGGGGGGGGGGG (ssRNA) [G14] | ~2 | –
UUUUUUUUUUUUUU (ssRNA) [U14] | – | binds
